The source of these data is patent US20240018502A1.

B1: MTSP-1 H40R/I41H/F97T/ins97aE/T98G/F99L/C122S/Q175L/Q192E (enzyme)
chain: VVGGTDADEGEWPWQVSLHALGQGRHCGASLISPNWLVSAAHCYIDDRGFRYSDPTQWTAFLGLHDQSQRSAPGVQERRLKRIISHPFFNDTEGLDYDIALLELEKPAEYSSMVRPISLPDASHVFPAGKAIWVTGWGHTQYGGTGALILQKGEIRVINQTTCENLLPQLITPRMMCVGFLSGGVDSCEGDSGGPLSSVEADGRIFQAGVVSWGDGCAQRNKPGVYTRLPLFRDWIKENTGV
B2: MTSP-1 H40R/I41H/F97E/ins97aE/T98G/F99L/C122S/Q175L/Q192G (enzyme)
chain: VVGGTDADEGEWPWQVSLHALGQGRHCGASLISPNWLVSAAHCYIDDRGFRYSDPTQWTAFLGLHDQSQRSAPGVQERRLKRIISHPFFNDEEGLDYDIALLELEKPAEYSSMVRPISLPDASHVFPAGKAIWVTGWGHTQYGGTGALILQKGEIRVINQTTCENLLPQLITPRMMCVGFLSGGVDSCGGDSGGPLSSVEADGRIFQAGVVSWGDGCAQRNKPGVYTRLPLFRDWIKENTGV
B3: MTSP-1 H40R/I41H/F97T/ins97aE/T98G/F99L/C122S/Q175L/Q192G (enzyme)
chain: VVGGTDADEGEWPWQVSLHALGQGRHCGASLISPNWLVSAAHCYIDDRGFRYSDPTQWTAFLGLHDQSQRSAPGVQERRLKRIISHPFFNDTEGLDYDIALLELEKPAEYSSMVRPISLPDASHVFPAGKAIWVTGWGHTQYGGTGALILQKGEIRVINQTTCENLLPQLITPRMMCVGFLSGGVDSCGGDSGGPLSSVEADGRIFQAGVVSWGDGCAQRNKPGVYTRLPLFRDWIKENTGV
B4: MTSP-1 H40R/I41H/F97D/ins97aE/T98G/F99L/C122S/Q175L/Q192G (enzyme)
chain: VVGGTDADEGEWPWQVSLHALGQGRHCGASLISPNWLVSAAHCYIDDRGFRYSDPTQWTAFLGLHDQSQRSAPGVQERRLKRIISHPFFNDDEGLDYDIALLELEKPAEYSSMVRPISLPDASHVFPAGKAIWVTGWGHTQYGGTGALILQKGEIRVINQTTCENLLPQLITPRMMCVGFLSGGVDSCGGDSGGPLSSVEADGRIFQAGVVSWGDGCAQRNKPGVYTRLPLFRDWIKENTGV
B5: MTSP-1 H40R/I41H/F97D/F99L/C122S/G151N/Q175M/Q192A/D217N/K224R (enzyme)
chain: VVGGTDADEGEWPWQVSLHALGQGRHCGASLISPNWLVSAAHCYIDDRGFRYSDPTQWTAFLGLHDQSQRSAPGVQERRLKRIISHPFFNDDTLDYDIALLELEKPAEYSSMVRPISLPDASHVFPAGKAIWVTGWGHTQYGGTNALILQKGEIRVINQTTCENLLPQMITPRMMCVGFLSGGVDSCAGDSGGPLSSVEADGRIFQAGVVSWGNGCAQRNRPGVYTRLPLFRDWIKENTGV
B6: MTSP-1 H40R/I41H/F97D/C122S/G151N/L153R (enzyme)
chain: VVGGTDADEGEWPWQVSLHALGQGRHCGASLISPNWLVSAAHCYIDDRGFRYSDPTQWTAFLGLHDQSQRSAPGVQERRLKRIISHPFFNDDTFDYDIALLELEKPAEYSSMVRPISLPDASHVFPAGKAIWVTGWGHTQYGGTNARILQKGEIRVINQTTCENLLPQQITPRMMCVGFLSGGVDSCQGDSGGPLSSVEADGRIFQAGVVSWGDGCAQRNKPGVYTRLPLFRDWIKENTGV
B7: MTSP-1 H40K/I41M/F97D/F99L/C122S/Q175M/D217N/K224R (enzyme)
chain: VVGGTDADEGEWPWQVSLHALGQGKMCGASLISPNWLVSAAHCYIDDRGFRYSDPTQWTAFLGLHDQSQRSAPGVQERRLKRIISHPFFNDDTLDYDIALLELEKPAEYSSMVRPISLPDASHVFPAGKAIWVTGWGHTQYGGTGALILQKGEIRVINQTTCENLLPQMITPRMMCVGFLSGGVDSCQGDSGGPLSSVEADGRIFQAGVVSWGNGCAQRNRPGVYTRLPLFRDWIKENTGV
B8: MTSP-1 H40K/I41M/F97D/F99L/C122S/G151N/Q175M/Q192D/D217N/K224R (enzyme)
chain: VVGGTDADEGEWPWQVSLHALGQGKMCGASLISPNWLVSAAHCYIDDRGFRYSDPTQWTAFLGLHDQSQRSAPGVQERRLKRIISHPFFNDDTLDYDIALLELEKPAEYSSMVRPISLPDASHVFPAGKAIWVTGWGHTQYGGTNALILQKGEIRVINQTTCENLLPQMITPRMMCVGFLSGGVDSCDGDSGGPLSSVEADGRIFQAGVVSWGNGCAQRNRPGVYTRLPLFRDWIKENTGV
B9: MTSP-1 H40R/I41H/F97D/F99L/C122S/G151N/Q192H (enzyme)
chain: VVGGTDADEGEWPWQVSLHALGQGRHCGASLISPNWLVSAAHCYIDDRGFRYSDPTQWTAFLGLHDQSQRSAPGVQERRLKRIISHPFFNDDTLDYDIALLELEKPAEYSSMVRPISLPDASHVFPAGKAIWVTGWGHTQYGGTNALILQKGEIRVINQTTCENLLPQQITPRMMCVGFLSGGVDSCHGDSGGPLSSVEADGRIFQAGVVSWGDGCAQRNKPGVYTRLPLFRDWIKENTGV
B10: MTSP-1 H40R/I41H/F97D/F99L/C122S/G151N/Q175L/Q192A/D217N/K224R (enzyme)
chain: VVGGTDADEGEWPWQVSLHALGQGRHCGASLISPNWLVSAAHCYIDDRGFRYSDPTQWTAFLGLHDQSQRSAPGVQERRLKRIISHPFFNDDTLDYDIALLELEKPAEYSSMVRPISLPDASHVFPAGKAIWVTGWGHTQYGGTNALILQKGEIRVINQTTCENLLPQLITPRMMCVGFLSGGVDSCAGDSGGPLSSVEADGRIFQAGVVSWGNGCAQRNRPGVYTRLPLFRDWIKENTGV
B11: MTSP-1 H40R/I41H/F97D/F99L/C122S/G151N/L153R (enzyme)
chain: VVGGTDADEGEWPWQVSLHALGQGRHCGASLISPNWLVSAAHCYIDDRGFRYSDPTQWTAFLGLHDQSQRSAPGVQERRLKRIISHPFFNDDTLDYDIALLELEKPAEYSSMVRPISLPDASHVFPAGKAIWVTGWGHTQYGGTNARILQKGEIRVINQTTCENLLPQQITPRMMCVGFLSGGVDSCQGDSGGPLSSVEADGRIFQAGVVSWGDGCAQRNKPGVYTRLPLFRDWIKENTGV
B12: MTSP-1 H40K/I41M/F97D/F99L/C122S/Q175M/Q192D/D217N/K224R (enzyme)
chain: VVGGTDADEGEWPWQVSLHALGQGKMCGASLISPNWLVSAAHCYIDDRGFRYSDPTQWTAFLGLHDQSQRSAPGVQERRLKRIISHPFFNDDTLDYDIALLELEKPAEYSSMVRPISLPDASHVFPAGKAIWVTGWGHTQYGGTGALILQKGEIRVINQTTCENLLPQMITPRMMCVGFLSGGVDSCDGDSGGPLSSVEADGRIFQAGVVSWGNGCAQRNRPGVYTRLPLFRDWIKENTGV
B13: MTSP-1 H40R/I41H/F97D/F99L/C122S/G151N/Q192H/P232S (enzyme)
chain: VVGGTDADEGEWPWQVSLHALGQGRHCGASLISPNWLVSAAHCYIDDRGFRYSDPTQWTAFLGLHDQSQRSAPGVQERRLKRIISHPFFNDDTLDYDIALLELEKPAEYSSMVRPISLPDASHVFPAGKAIWVTGWGHTQYGGTNALILQKGEIRVINQTTCENLLPQQITPRMMCVGFLSGGVDSCHGDSGGPLSSVEADGRIFQAGVVSWGDGCAQRNKPGVYTRLSLFRDWIKENTGV
B14: MTSP-1 H40K/I41M/F97D/F99L/C122S/G151N/Q175L/Q192A/D217N/K224R (enzyme)
chain: VVGGTDADEGEWPWQVSLHALGQGKMCGASLISPNWLVSAAHCYIDDRGFRYSDPTQWTAFLGLHDQSQRSAPGVQERRLKRIISHPFFNDDTLDYDIALLELEKPAEYSSMVRPISLPDASHVFPAGKAIWVTGWGHTQYGGTNALILQKGEIRVINQTTCENLLPQLITPRMMCVGFLSGGVDSCAGDSGGPLSSVEADGRIFQAGVVSWGNGCAQRNRPGVYTRLPLFRDWIKENTGV
B15: MTSP-1 H40R/I41H/F97D/F99L/C122S/Q175M/D217N/K224R (enzyme)
chain: VVGGTDADEGEWPWQVSLHALGQGRHCGASLISPNWLVSAAHCYIDDRGFRYSDPTQWTAFLGLHDQSQRSAPGVQERRLKRIISHPFFNDDTLDYDIALLELEKPAEYSSMVRPISLPDASHVFPAGKAIWVTGWGHTQYGGTGALILQKGEIRVINQTTCENLLPQMITPRMMCVGFLSGGVDSCQGDSGGPLSSVEADGRIFQAGVVSWGNGCAQRNRPGVYTRLPLFRDWIKENTGV
B16: MTSP-1 H40K/I41M/F99L/C122S/T150A/G151R/Q192G (enzyme)
chain: VVGGTDADEGEWPWQVSLHALGQGKMCGASLISPNWLVSAAHCYIDDRGFRYSDPTQWTAFLGLHDQSQRSAPGVQERRLKRIISHPFFNDFTLDYDIALLELEKPAEYSSMVRPISLPDASHVFPAGKAIWVTGWGHTQYGGARALILQKGEIRVINQTTCENLLPQQITPRMMCVGFLSGGVDSCGGDSGGPLSSVEADGRIFQAGVVSWGDGCAQRNKPGVYTRLPLFRDWIKENTGV
B17: MTSP-1 H40K/I41M/F97D/F99L/C122S/G151N/Q175M/Q192A/D217N/K224R (enzyme)
chain: VVGGTDADEGEWPWQVSLHALGQGKMCGASLISPNWLVSAAHCYIDDRGFRYSDPTQWTAFLGLHDQSQRSAPGVQERRLKRIISHPFFNDDTLDYDIALLELEKPAEYSSMVRPISLPDASHVFPAGKAIWVTGWGHTQYGGTNALILQKGEIRVINQTTCENLLPQMITPRMMCVGFLSGGVDSCAGDSGGPLSSVEADGRIFQAGVVSWGNGCAQRNRPGVYTRLPLFRDWIKENTGV
B18: MTSP-1 H40R/I41H/F97D/F99L/C122S/Q175M/Q192D/D217N/K224R (enzyme)
chain: VVGGTDADEGEWPWQVSLHALGQGRHCGASLISPNWLVSAAHCYIDDRGFRYSDPTQWTAFLGLHDQSQRSAPGVQERRLKRIISHPFFNDDTLDYDIALLELEKPAEYSSMVRPISLPDASHVFPAGKAIWVTGWGHTQYGGTGALILQKGEIRVINQTTCENLLPQMITPRMMCVGFLSGGVDSCDGDSGGPLSSVEADGRIFQAGVVSWGNGCAQRNRPGVYTRLPLFRDWIKENTGV
B19: MTSP-1 H40R/I41H/F97D/C122S/G151N/L153R/V202M (enzyme)
chain: VVGGTDADEGEWPWQVSLHALGQGRHCGASLISPNWLVSAAHCYIDDRGFRYSDPTQWTAFLGLHDQSQRSAPGVQERRLKRIISHPFFNDDTFDYDIALLELEKPAEYSSMVRPISLPDASHVFPAGKAIWVTGWGHTQYGGTNARILQKGEIRVINQTTCENLLPQQITPRMMCVGFLSGGVDSCQGDSGGPLSSMEADGRIFQAGVVSWGDGCAQRNKPGVYTRLPLFRDWIKENTGV
B20: MTSP-1 H40R/I41H/F97D/C122S/G133D/G151N (enzyme)
chain: VVGGTDADEGEWPWQVSLHALGQGRHCGASLISPNWLVSAAHCYIDDRGFRYSDPTQWTAFLGLHDQSQRSAPGVQERRLKRIISHPFFNDDTFDYDIALLELEKPAEYSSMVRPISLPDASHVFPADKAIWVTGWGHTQYGGTNALILQKGEIRVINQTTCENLLPQQITPRMMCVGFLSGGVDSCQGDSGGPLSSVEADGRIFQAGVVSWGDGCAQRNKPGVYTRLPLFRDWIKENTGV

For this experiment, the target named is plasma purified human complement protein C3 (human) (UniProt P01024). Description: cell-based or functional assay.
plasma purified human complement protein C3 (human), sequence (P01024 23-667, chain 1 of 2): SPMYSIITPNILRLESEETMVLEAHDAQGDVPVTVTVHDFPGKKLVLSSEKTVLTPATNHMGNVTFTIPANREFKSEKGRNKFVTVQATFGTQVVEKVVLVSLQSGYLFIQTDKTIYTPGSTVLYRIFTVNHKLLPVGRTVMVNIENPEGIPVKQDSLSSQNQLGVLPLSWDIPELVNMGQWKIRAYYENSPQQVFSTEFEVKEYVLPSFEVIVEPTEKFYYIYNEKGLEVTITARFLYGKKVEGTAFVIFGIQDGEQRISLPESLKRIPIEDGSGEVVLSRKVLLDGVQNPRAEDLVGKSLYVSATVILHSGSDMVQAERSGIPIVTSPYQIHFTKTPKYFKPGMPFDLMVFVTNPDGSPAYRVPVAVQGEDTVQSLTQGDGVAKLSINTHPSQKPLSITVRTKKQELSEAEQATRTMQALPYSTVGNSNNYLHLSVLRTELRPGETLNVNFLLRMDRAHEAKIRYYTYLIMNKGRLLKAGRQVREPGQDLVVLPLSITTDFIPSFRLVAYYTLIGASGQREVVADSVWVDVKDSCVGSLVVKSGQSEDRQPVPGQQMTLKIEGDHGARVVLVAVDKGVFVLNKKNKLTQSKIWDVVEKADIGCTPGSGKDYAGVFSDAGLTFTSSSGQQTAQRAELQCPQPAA
plasma purified human complement protein C3 (human), sequence (P01024 672-1663, chain 2 of 2): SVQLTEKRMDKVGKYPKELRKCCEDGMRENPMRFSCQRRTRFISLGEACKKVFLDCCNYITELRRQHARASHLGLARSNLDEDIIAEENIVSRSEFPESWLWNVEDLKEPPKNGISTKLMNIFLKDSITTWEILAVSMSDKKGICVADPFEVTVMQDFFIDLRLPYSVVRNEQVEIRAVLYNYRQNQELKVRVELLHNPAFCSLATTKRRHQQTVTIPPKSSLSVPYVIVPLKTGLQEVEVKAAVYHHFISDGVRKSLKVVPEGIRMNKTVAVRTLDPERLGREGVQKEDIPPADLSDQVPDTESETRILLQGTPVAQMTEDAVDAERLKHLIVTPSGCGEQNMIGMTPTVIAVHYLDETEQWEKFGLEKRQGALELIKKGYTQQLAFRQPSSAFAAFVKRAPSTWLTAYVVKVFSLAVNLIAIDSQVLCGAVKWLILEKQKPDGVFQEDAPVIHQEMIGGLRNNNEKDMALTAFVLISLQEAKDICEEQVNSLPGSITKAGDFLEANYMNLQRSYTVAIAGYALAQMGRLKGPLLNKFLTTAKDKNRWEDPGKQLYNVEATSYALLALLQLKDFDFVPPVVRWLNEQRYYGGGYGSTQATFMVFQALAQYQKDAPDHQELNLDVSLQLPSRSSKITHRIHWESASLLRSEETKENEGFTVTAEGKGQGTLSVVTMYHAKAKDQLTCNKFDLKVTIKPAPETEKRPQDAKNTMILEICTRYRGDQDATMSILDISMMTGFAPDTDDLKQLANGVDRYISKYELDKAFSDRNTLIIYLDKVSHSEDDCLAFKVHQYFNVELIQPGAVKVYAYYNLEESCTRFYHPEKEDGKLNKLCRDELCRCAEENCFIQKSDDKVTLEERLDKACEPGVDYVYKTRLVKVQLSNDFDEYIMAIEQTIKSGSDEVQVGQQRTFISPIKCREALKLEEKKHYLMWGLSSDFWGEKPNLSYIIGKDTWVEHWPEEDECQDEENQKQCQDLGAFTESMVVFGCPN
The molecule B1 displayed an EC50 of hC3 cleavage of 5860 nM.
Molecule B2 displayed an EC50 of hC3 cleavage of 82.4 nM.
Next, B3: 46 nM.
With B4, the EC50 of hC3 cleavage stood at 39.7 nM.
The result for B5 reads 563 nM; that for B6, 126 nM.
For the molecule B7, the EC50 of hC3 cleavage was determined as 144 nM.
Next, B8: 9.74 nM; B9: 179 nM; B10: 540 nM.
Next, B11: 59.9 nM; B12: 9.64 nM; B13: 262 nM.
Next, B14: 1290 nM.
The molecule B15 gave an EC50 of hC3 cleavage of 103 nM.
Next, B16: 110 nM; B17: 1230 nM.
Next, B18: 9990 nM.
Next, B19: 103 nM.
For the molecule B20, the EC50 of hC3 cleavage was 60.4 nM.
